Laboratory results from the RNAGym collection of RNA variant scans (doi:10.7554/elife.90254).

B1: OR4K15 (parent)
chain: GUUAACGGUCAUAGGCCAUGGAAACUAGGAGCACCAUUUCGCUGCCAGUGAAGAAAUGAACAAAGAAAAUCUGGGCCAGGCAGGCAUCAAAAGAAAUAGUCUUGCGCUCAACCAGAAAGUCUGUAAUCAUUUUAAGGGUA

Variants of: B1
Test: self-cleavage, relative activity (ratio to wild type); higher = more cleavage; in vitro, sequencing; the parent is a self-cleaving ribozyme

Point of comparison: GUUAACGGUCUUAGGCCAUGGAAACUAGGAGCACCAUUUCGCUGCCAGUGAAGAAAUGAACAAAGAAAAUCUGGGCCAGGCAGGCAUCAAAAGAAAUAGACUUGCGCUCAACCAGAAAGUCUGUAAUCAUUUUAAGGGUA [A11U U100A], self-cleavage 0.62. Against it:
- GUUAACGGUCUUAGGCCAUGGAAACUAGGAGCACCAUUUCGCUGCCAGUGAAGAAAUGAACAAAGAAAAUCUGGGCCAGGCAGGCAUCAAAAGAAAUAGUCUUGCGCUCAACCAGAAAGUCUGUAAUCAUUUCAAGGGUA [A11U U133C] — higher, 1.36
- GUUAACGGUCAAAGGCCAUGGAAACUAGGAGCACCAUUUCGCUGCCAGUGAAGAAAUGAACAAAGAAAAUCUGGGCCAGGCAGGCAUCGAAAGAAAUAGUCUUGCGCUCAACCAGAAAGUCUGUAAUCAUUUUAAGGGUA [U12A A89G] — higher, 1.57
- GUUAACGGUCAAAGGCCAUGGAAACUAGGAGCACCAUUUCGCUGCCAGUGAAGAAAUGAACAAAGAAAAUCUGGGCCAGGCAGGCAUCAAUAGAAAUAGUCUUGCGCUCAACCAGAAAGUCUGUAAUCAUUUUAAGGGUA [U12A A91U] — higher, 1.64
- GUUAACGGUCAAAGGCCAUGGAAACUAGGAGCACCAUUUCGCUGCCAGUGAAGAAAUGAACAAAGAGAAUCUGGGCCAGGCAGGCAUCAAAAGAAAUAGUCUUGCGCUCAACCAGAAAGUCUGUAAUCAUUUUAAGGGUA [U12A A67G] — higher, 1.56
- GUUAACGGUCAAAGGCCAUGGAAACUAGGAGCACCAUUUCGCUGCCAGUGAAGAAAUGAACAAAGAAAAUCUGGGCCAGGCAGGCAUCAAAAGAAUUAGUCUUGCGCUCAACCAGAAAGUCUGUAAUCAUUUUAAGGGUA [U12A A96U] — higher, 1.67
- GUUAACGGUCAAAGGCCAUGGAAACUAGGAGCACCAUUUCGCUGCCAGUGAAGAAAUGAACAAAGAAAAUCUGGGCCAGGCAGGCAUCAAAAGAAGUAGUCUUGCGCUCAACCAGAAAGUCUGUAAUCAUUUUAAGGGUA [U12A A96G] — higher, 1.43
- GUUAACGGUCAAAGGCCAUGGAAACUAGGAGCACCAUUUCGCCGCCAGUGAAGAAAUGAACAAAGAAAAUCUGGGCCAGGCAGGCAUCAAAAGAAAUAGUCUUGCGCUCAACCAGAAAGUCUGUAAUCAUUUUAAGGGUA [U12A U43C] — lower, 0.49
- GUUAACGGUCAAAGGCCAUGGAAACUAGGAGCACCAUUUCGCAGCCAGUGAAGAAAUGAACAAAGAAAAUCUGGGCCAGGCAGGCAUCAAAAGAAAUAGUCUUGCGCUCAACCAGAAAGUCUGUAAUCAUUUUAAGGGUA [U12A U43A] — higher, 1.63
- GUUAACGGUCAAAGGCCAUGGAAACUAGGAGCACCAUUUCGCUGCCAGUGAGGAAAUGAACAAAGAAAAUCUGGGCCAGGCAGGCAUCAAAAGAAAUAGUCUUGCGCUCAACCAGAAAGUCUGUAAUCAUUUUAAGGGUA [U12A A52G] — higher, 1.14
- GUUAACGGUCUUAGGCCAUGGAAACUAGGAGCACCAUUUCGCUGCCAGUGAAGAAAUGAACAAAGAAAAUCUGGGCCAGGCAGGCAUCAAAAGAAACAGUCUUGCGCUCAACCAGAAAGUCUGUAAUCAUUUUAAGGGUA [A11U U97C] — lower, 0.56
- GUUAACGGUCAAAGGCCAUGGAAACUAGGAGCACCAUUUCGCUGCCAGUGAAGAAAUGAACAAAGAAAAUCUGGGCCAGGCAGGCAUCAGAAGAAAUAGUCUUGCGCUCAACCAGAAAGUCUGUAAUCAUUUUAAGGGUA [U12A A90G] — lower, 0.57
- GUUAACGGUCAAAGGCCAUGGAAACUAGGAGCACCAUUUCGCUGCCAGUGAAGUAAUGAACAAAGAAAAUCUGGGCCAGGCAGGCAUCAAAAGAAAUAGUCUUGCGCUCAACCAGAAAGUCUGUAAUCAUUUUAAGGGUA [U12A A54U] — higher, 1.28
- GUUAACGGUCAAAGGCCAUGGAAACUAGGAGCACCAUUUCGCUGCCAGUGAAGAAAUGAACAUAGAAAAUCUGGGCCAGGCAGGCAUCAAAAGAAAUAGUCUUGCGCUCAACCAGAAAGUCUGUAAUCAUUUUAAGGGUA [U12A A63U] — higher, 1.88
- GUUAACGGUCAAAGGCCAUGGAAACUAGGAGCACCGUUUCGCUGCCAGUGAAGAAAUGAACAAAGAAAAUCUGGGCCAGGCAGGCAUCAAAAGAAAUAGUCUUGCGCUCAACCAGAAAGUCUGUAAUCAUUUUAAGGGUA [U12A A36G] — higher, 1.05
- GUUAACGGUCAAAGGCCAUGGAAACUAGGAGCACCCUUUCGCUGCCAGUGAAGAAAUGAACAAAGAAAAUCUGGGCCAGGCAGGCAUCAAAAGAAAUAGUCUUGCGCUCAACCAGAAAGUCUGUAAUCAUUUUAAGGGUA [U12A A36C] — higher, 1.82
- GUUAACGGUCAAAGGCCAUGGAAACUAGGAGCACCAUUUCGCUGCCAGUGAAGAAAUGAACAAAGAAAAUCUGGGCCAGGCUGGCAUCAAAAGAAAUAGUCUUGCGCUCAACCAGAAAGUCUGUAAUCAUUUUAAGGGUA [U12A A82U] — lower, 0.3
- GUUAACGGUCUUAGGCCAUGGAAACUAGGAGCACCAUUUCGCUGCCAGUGAAGAAAUGAACAAAGAAAAUCUGGGCCAGGCAGGCAUCAAAAGAAAUAGUCUUGCGCUCAACCAGAAAGUCUGUAAUCAUUCUAAGGGUA [A11U U132C] — higher, 0.89
- GUUAACGGUCAAGGGCCAUGGAAACUAGGAGCACCAUUUCGCUGCCAGUGAAGAAAUGAACAAAGAAAAUCUGGGCCAGGCAGGCAUCAAAAGAAAUAGUCUUGCGCUCAACCAGAAAGUCUGUAAUCAUUUUAAGGGUA [U12A A13G] — higher, 1.28
- GUUAACGGUCAAAGGCCAUGGAAACUAGGAGCACCAUUUCGCUGCCAGUGAAGAAAUGAACAAAGAAAAACUGGGCCAGGCAGGCAUCAAAAGAAAUAGUCUUGCGCUCAACCAGAAAGUCUGUAAUCAUUUUAAGGGUA [U12A U70A] — lower, 0.56
- GUUAACGGUCAAAGGCCAUGGAAACUAGGAGCACCAUUUCGCUGCCAGUGAAGAAAUGAGCAAAGAAAAUCUGGGCCAGGCAGGCAUCAAAAGAAAUAGUCUUGCGCUCAACCAGAAAGUCUGUAAUCAUUUUAAGGGUA [U12A A60G] — higher, 1.36
- GUUAACGGUCAAAGGCCAUGGAAACUAGGAGCACCAUUUCGCUGCCAGUGAAGAAAUGACCAAAGAAAAUCUGGGCCAGGCAGGCAUCAAAAGAAAUAGUCUUGCGCUCAACCAGAAAGUCUGUAAUCAUUUUAAGGGUA [U12A A60C] — higher, 1.18
- GUUAACGGUCAAAGGCCAUGGAAACUAGGAGCACCAUUUCGCUGCCAGUGAAGAAGUGAACAAAGAAAAUCUGGGCCAGGCAGGCAUCAAAAGAAAUAGUCUUGCGCUCAACCAGAAAGUCUGUAAUCAUUUUAAGGGUA [U12A A56G] — higher, 1.58
- GUUAACGGUCAAAGGCCAUGGAAACUAGGAGCACCAUUUCGCUGCCAGUGAAGAAAUGAACAAAGAAAAUCUGGGCCAGGCAGGCAUCAAAAGAAAUAGUCAUGCGCUCAACCAGAAAGUCUGUAAUCAUUUUAAGGGUA [U12A U102A] — higher, 1.08
- GUUAACGGUCAAAGGCCAUGGAAACUAGGAGCACCAUUUCGCUGCCAGUGAAGAAAUGAACAAAGAAAAUCUGGGCCAGGCAGGCAUCAAAAGAAAUAGUCUUGCGCUCAGCCAGAAAGUCUGUAAUCAUUUUAAGGGUA [U12A A111G] — lower, 0.08
- GUUAACGGUCAAAGGCCAUGGAAACUAGGAGCACCAUUUCGCUGCCAGAGAAGAAAUGAACAAAGAAAAUCUGGGCCAGGCAGGCAUCAAAAGAAAUAGUCUUGCGCUCAACCAGAAAGUCUGUAAUCAUUUUAAGGGUA [U12A U49A] — lower, 0.48
- GUUAACGGUCAAAGGCCAUGGAAACUAGGAGCACCAUUUCGCUGCCAGCGAAGAAAUGAACAAAGAAAAUCUGGGCCAGGCAGGCAUCAAAAGAAAUAGUCUUGCGCUCAACCAGAAAGUCUGUAAUCAUUUUAAGGGUA [U12A U49C] — higher, 1.59
- GUUAACGGUCUUAGGCCAUGGAAACUAGGAGCACCAUUUCGCUGCCAGUGAAGAAAUGAACAAAGAAAAUCUGGGCCAGGCAGGCAUCAAAAGAAAUAGUCUUGCGCGCAACCAGAAAGUCUGUAAUCAUUUUAAGGGUA [A11U U108G] — lower, 0.08
- GUUAACGGUCAAAGGCCAUGGAAACUAGGAGCACCAUUUCGCUGCCAGUGUAGAAAUGAACAAAGAAAAUCUGGGCCAGGCAGGCAUCAAAAGAAAUAGUCUUGCGCUCAACCAGAAAGUCUGUAAUCAUUUUAAGGGUA [U12A A51U] — higher, 1.05
- GUUAACGGUCAAAGGCCAUGGAAACUAGGAGCACCAUUUCGCUGCCAGUGGAGAAAUGAACAAAGAAAAUCUGGGCCAGGCAGGCAUCAAAAGAAAUAGUCUUGCGCUCAACCAGAAAGUCUGUAAUCAUUUUAAGGGUA [U12A A51G] — higher, 0.95
- GUUAACGGUCAAAGGCCAUGGAAACUAGGAGCACCAUUUCGCUGCCAGUGAAGAAAUGAACAAAGAAAAUCUGGGCCAGGCAGGCAUCAAAGGAAAUAGUCUUGCGCUCAACCAGAAAGUCUGUAAUCAUUUUAAGGGUA [U12A A92G] — higher, 1.37
- GUUAACGGUCAAAGGCCAUGGAAACUAGGAGCACCAUUUCGCUGCCAGUGAAGAAAUGAACAAAGAAAAUCUGGGCCAGGCAGGCAUCAAAAGAAAUAGUCUUGCGCUCAACCAGAAAGUCUGUAAUCAUUUUAAGGGUA [U12A] — higher, 1.19
- GUUAACGGUCUUAGGCCAUGGAAACUAGGAGCACCAUUUCGCUGCCAGUGAAGAAAUGAACAAAGAAAAUCUGGGCCAGGCAGGCAUCAAAAGAAAUAGUCUUGCGCUCAACCAGAAAGUCCGUAAUCAUUUUAAGGGUA [A11U U122C] — lower, 0.19
- GUUAACGGUCAAAGGCCAUGGAAACUAGGAGCACCAUUUCGCUGCCAGUGAAGAAAUGAACAAAGAAAAUCUGGGCCAGGCAGGCAUCAAAAGAAAUAGUCUUGCGCUCCACCAGAAAGUCUGUAAUCAUUUUAAGGGUA [U12A A110C] — lower, 0.34
- GUUAACGGUCAAAGGCCAUGGAAACUAGGAGCACCAUUUCGCUGCCAGUGAAGAAAUGAACAAAGAAAAUCUGGGCCAGGCAGGCAUCAAAAGAAAUAGUCUUGCGCUCUACCAGAAAGUCUGUAAUCAUUUUAAGGGUA [U12A A110U] — higher, 1.63
- GUUAACGGUCAAAGGCCAUGGAAACUAGGAGCACCAUUUCGCUGCCAGUGAAGAAAUGAACAAAGGAAAUCUGGGCCAGGCAGGCAUCAAAAGAAAUAGUCUUGCGCUCAACCAGAAAGUCUGUAAUCAUUUUAAGGGUA [U12A A66G] — higher, 0.9
- GUUAACGGUCAAAGGCCAUGGAAACUAGGAGCACCAUUUCGCUGCCAGUGAAGAAAUGGACAAAGAAAAUCUGGGCCAGGCAGGCAUCAAAAGAAAUAGUCUUGCGCUCAACCAGAAAGUCUGUAAUCAUUUUAAGGGUA [U12A A59G] — higher, 1.26
- GUUAACGGUCUUAGGCCAUGGAAACUAGGAGCACCAUUUCGCUGCCAGUGAAGAAAUGAACAAAGAAAAUCUGGGCCAGGCAGGCAUCAAAAGAAAUAGUCUUGCGCUCAACCAGAAAGUCUGCAAUCAUUUUAAGGGUA [A11U U124C] — higher, 1.14
- GUUAACGGUCAAAGGCCAUGGAAACUAGGUGCACCAUUUCGCUGCCAGUGAAGAAAUGAACAAAGAAAAUCUGGGCCAGGCAGGCAUCAAAAGAAAUAGUCUUGCGCUCAACCAGAAAGUCUGUAAUCAUUUUAAGGGUA [U12A A30U] — higher, 1.11
- GUUAACGGUCUUAGGCCAUGGAAACUAGGAGCACCAUUUCGCUGCCAGUGAAGAAAUGAACAAAGAAAAUCUGGGCCAGGCAGGCAUCAAAAGAAAUAGUCUUGCGCUCAACCAGAAAGUCUGUAACCAUUUUAAGGGUA [A11U U127C] — higher, 1.06
- GUUAACGGUCAAAGGCCAUGGAAACUAGGAGCACCAUGUCGCUGCCAGUGAAGAAAUGAACAAAGAAAAUCUGGGCCAGGCAGGCAUCAAAAGAAAUAGUCUUGCGCUCAACCAGAAAGUCUGUAAUCAUUUUAAGGGUA [U12A U38G] — higher, 1.9
